# Data taken from article PMC3178889 (Nature neuroscience, 2011).
# “Also recorded” adds a separate entry of the source.
# B1: GCAP1: N-myristoylated GCAP1, Ca^2+-binding protein (protein)
# chain: MGNIMEGKSVEELSSTECHQWYKKFMTECPSGQLTLYEFRQFFGLKNLSPSASQYVEQMFETFDFNKDGYIDFMEYVAALSLVLKGKVEQKLRWYFKLYDVDGNGCIDRDELLTIIRAIRTINPWSDSSMSAEEFTDTVFAKIDINGDGELSLEEFMEGVQKDQMLLDTLTRSLDLTGIVRRLQNGEHEEAGTGDLAAEAAG
# modifications: N-myristoylated
# B2: cone Tα: cone transducin α-subunit (protein)
# chain: MGSGASAEDKELAKRSKELEKKLQEDADKEAKTVKLLLLGAGESGKSTIVKQMKIIHQDGYSPEECLEYKAIIYGNVLQSILAIIRAMPTLGIDYAEVSCVDNGRQLNNLADSIEEGTMPPELVEVIRKLWKDGGVQACFDRAAEYQLNDSASYYLNQLDRITAPDYLPNEQDVLRSRVKTTGIIETKFSVKDLNFRMFDVGGQRSERKKWIHCFEGVTCIIFCAALSAYDMVLVEDDEVNRMHESLHLFNSICNHKFFAATSIVLFLNKKDLFEEKIKKVHLSICFPEYDGNNSYEDAGNYIKSQFLDLNMRKDVKEIYSHMTCATDTQNVKFVFDAVTDIIIKENLKDCGLF
# B3: recoverin: Ca^2+-binding protein recoverin (protein)
# chain: MGNSKSGALSKEILEELQLNTKFTEEELSAWYQSFLKECPSGRITRQEFESIYSKFFPDSDPKAYAQHVFRSFDANSDGTLDFKEYVIALHMTTAGKPTQKLEWAFSLYDVDGNGTISKNEVLEIVMAIFKMIKPEDVKLLPDDENTPEKRAEKIWAFFGKKEDDKLTEEEFIEGTLANKEILRLIQFEPQKVKERIKEKKQ
# B4: farnesylated Tγ: farnesylated transducin γ-subunit (protein)
# chain: MPVINIEDLTEKDKLKMEVDQLKKEVTLERMMVSKCCEEVRDYIEERSGEDPLVKGIPEDKNPFKELKGGCVIS
# modifications: farnesylated
# Tested on: GST-UNC119
# Test: GST-UNC119 pulldown of proteins from retina lysates or HEK cells
# Assay type: binding, bovine
# Details: bovine or mouse retina lysate; Coomassie/LC-MS/MS or immunoblot
row,Molecule,interaction with GST-UNC119 in pulldown from retina lysate
1,B1,does not interact with GST-UNC119; also recorded: failed to interact
2,B2,Pulldown of rod and cone Tα
3,B3,failed to interact
4,B4,not with farnesylated Tγ
